First the molecules themselves.
B1: HDV Ribozyme (parent)
chain: GGCCGGCAUGGUCCCAGCCUCCUCGCUGGCGCCGGCUGGGCAACAUUCCGAGGGGACCGUCCCCUCGGUAAUGGCGAAUGGGACCCA

The variants in the data set derive from B1. Description: self-cleavage, relative activity (ratio to wild type); higher = more cleavage; co-transcriptional.
In the case of U23G G40U, the self-cleavage stood at 0.431. The figure for A8C U37C is 0.997; for C15G G34U it is 0.19; for U46G U72A it is 0.266. Take C14U C41G: the self-cleavage came out at 1.06.

Consider C66G A71G, for which the self-cleavage is 1.05. Under G28A A42C stands 0.128; under C26G G38A, 0.0978; under G10C A45C, 0.231. Consider G68A A87C, for which the self-cleavage was found to be 0.918. The figure for C4A G74A is 0; for C18U U69A it is 0.397.

C36G C49A: the self-cleavage amounted to 0.138. With G25A U37A, the self-cleavage came to 0.213. Turning to G59U G80C, the self-cleavage stood at 0.141. With C44U A87G, the self-cleavage amounted to 0.554. Consider C4G C66G, for which the self-cleavage is 0.727. The figure for U9A G54A is 0.943; for C49G G68A it is 0.789. The figure for C64A C66A is 0.573. Under A45U C84U stands 0.623; under G6A U60A, 0.811; under G31C C84U, 0.295. Regarding A8G U60G, the self-cleavage worked out at 1.11. Under A51C A77G stands 0.643; under C33U G53C, 0.727; under G39U G59A, 0.636. The figure for G11U A71C is 0.405. Consider A45G G67A, for which the self-cleavage came out at 0.678. For the variant A77C C85A, the self-cleavage came to 0.506. The figure for G35A G80A is 0.196; for G5C G52C it is 0.095.

With C30G A45G, the self-cleavage came out at 0.0563. Consider U72G G82U, for which the self-cleavage is 0.

For the variant C19A G34A, the self-cleavage turned out to be 0.0755. Regarding G38C G50A, the self-cleavage amounted to 0.188. The figure for C3U G53A is 1. Turning to U37A A43C, the self-cleavage came out at 0.0723. Under U9G G10A stands 1.25.

As for G1A C7U, the self-cleavage turned out to be 0.0475. As for G10A G25A, the self-cleavage stood at 0.126. The figure for C30A U60G is 0.502; for U60C U65A it is 1.27; for C21G G34U it is 0.0604.

Take G11C U23G: the self-cleavage amounted to 0.0652. The figure for C58U U65G is 0.964. The figure for C61U U65C is 0.914. The figure for U47A A77U is 0.516; for G6C G28C it is 0; for C57U C64G it is 0.946. On to G31A C61A, for which the self-cleavage amounted to 0.554.

Consider C75A A78G, for which the self-cleavage turned out to be 0.0898. Turning to G10A C24U, the self-cleavage is 0.338. The figure for C7A G80A is 0.0739; for G10C C49G it is 0.453; for G52A G68U it is 0.591. Under C63G A78G stands 0.54.

For C66U A83G, the self-cleavage was determined as 0.643.

With C7U C36A, the self-cleavage came out at 0.0405. Under C30U U79G stands 0.128; under C15A U79G, 0.831; under U60G C64U, 0.897. As to G39U G74U, the self-cleavage stood at 0.382. The figure for G5A A71U is 0.231. Under A42G U46A stands 0.554. On to G50U A77U, for which the self-cleavage was 0.62. G31U G76C: the self-cleavage stood at 0.479. Turning to A56U A71U, the self-cleavage was found to be 0.864. For G6A C64A, the self-cleavage was 0.869. The figure for G52U A56U is 0.787. As to G50A C61U, the self-cleavage is 0.649.

A83U C84U: the self-cleavage stood at 0.87. U65G A78G: the self-cleavage came out at 0.957. The figure for G39A C57G is 0.591; for C14A C48G it is 0.969. On to G25A G29U, for which the self-cleavage was found to be 0.0941. The figure for C22G C86A is 0.106; for C75A G81C it is 0.157; for U60G C66G it is 1.05. For the variant G10A G67U, the self-cleavage worked out at 0.767. The figure for G55A G74A is 0.457; for U27A C61U it is 0.997; for G81A A87U it is 0.565. Under G1U A71C stands 0.297; under G6C, 0.294. In the case of A16G U47C, the self-cleavage was found to be 0.962. With C3A G39C, the self-cleavage is 0.0196. With C21A C63G, the self-cleavage is 0.0978.

For U27C G59U, the self-cleavage worked out at 0.76. Under C3A C33A stands 0.0698; under U20C G29A, 0.0773. The figure for U37A C61U is 0.277. Under C4A C49G stands 0.302; under C19A A87C, 0.148. For the variant U20C U65A, the self-cleavage was found to be 0.166. With G39A A56C, the self-cleavage was 0.447. For the variant A42C U65C, the self-cleavage turned out to be 0.268. The figure for U27A A56G is 1.08; for C19A A78G it is 0.0845; for A8G G38U it is 0.0405. Under C4U G10U stands 0.163; under G54C U79C, 0.482; under C24A U46C, 0.269.

For the variant C49U C64A, the self-cleavage was determined as 0.739. The figure for A45G A71C is 1.01.

For G59C G68U, the self-cleavage was found to be 1.07. Under A51G C61A stands 0.954; under U47C C49A, 0.95; under U46C G76C, 0.415. For G54U U69A, the self-cleavage was 0.899. The figure for G34C G67U is 0.166; for U9A C66U it is 1.01; for C7A C26G it is 0.554. As to G54U C58A, the self-cleavage turned out to be 1.07.

Turning to G10C G34U, the self-cleavage was 0.175. Turning to A16C C19U, the self-cleavage came out at 0.266.

Regarding A71U U72C, the self-cleavage came out at 0.57. Turning to C36A C49G, the self-cleavage is 0.0297. Regarding C18G G31A, the self-cleavage came to 0.0811. The figure for G11C G29C is 0.0852; for A51U U72A it is 0.628. Under C36G G74U stands 0.111. Turning to G2C G29C, the self-cleavage was 0.109.

C14U C44A: the self-cleavage is 1.01. Turning to G6U G29U, the self-cleavage was found to be 0.104. Consider G68A A71C, for which the self-cleavage is 0.58. For G59A C64A, the self-cleavage is 0.862.

As to G25U G31C, the self-cleavage was 0.101.

Regarding G1U G67U, the self-cleavage turned out to be 0.332. Regarding U9A G40C, the self-cleavage was determined as 0.325.

With C48G A71G, the self-cleavage is 0.962.

For the variant C48G A56U, the self-cleavage is 1.03. The figure for U23A C62G is 0.776; for C7A C19G it is 0.145; for C3U G5U it is 0.107.

In the case of G39U C85U, the self-cleavage is 0.674. The figure for G2A G74U is 0.073. For G39A A87G, the self-cleavage was 0.517.

For the variant G29C G74U, the self-cleavage was 0. The figure for G2U G11C is 0.0314; for C62G A87C it is 0.661.

A8C U47C: the self-cleavage is 0.665. Under U23G A45C stands 0.151. Regarding C21G C30G, the self-cleavage was 0. G25A G35A: the self-cleavage turned out to be 0.271. The figure for A43C U46C is 0.435; for C4A C13A it is 0.0282. Under G40C C66A stands 0.282; under G1U U79C, 0.332; under G5C U46G, 0.0573. As to U20G U65A, the self-cleavage was 0.138. Under C44G C48G stands 0.575; under U37C G80A, 0.267. G1U A78C: the self-cleavage was determined as 0.293. In the case of C7G A42G, the self-cleavage came out at 0.111. With U23G G67U, the self-cleavage stood at 0.789. The figure for G6U C61U is 0.525; for G31U C75A it is 0.0665. The figure for A16C U27G is 0.138; for U12A C32G it is 0.225; for C4U A71G it is 0.643. Under C33U G76C stands 1.07; under C13G U72A, 0.0536. C44G U79G: the self-cleavage is 0.196. Regarding C75U C86G, the self-cleavage amounted to 0.145.

On to G17C C18A, for which the self-cleavage amounted to 0.

Consider G2C C26G, for which the self-cleavage turned out to be 0.113.

Values taken from the RNAGym collection of RNA variant scans (doi:10.7554/elife.80360).
